Reference: the supplement of paper PMC12764529
± gives the half width of the 95% confidence interval.

Test: folding stability dG unfold (combined trypsin and chymotrypsin); higher = more stable
Outline: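 Unfolding free energy was derived, per protease or combined, against a sequence-predicted unfolded-state K50 and a shared folded-state K50, starting from K50 inferred by Bayesian fitting of sequencing counts. Digestion with trypsin and chymotrypsin was carried out on designed mini-proteins under 80 residues without cysteine in a PA-tagged cDNA display construct. Only designs with AlphaFold2 dimer inter-PAE above 15 were kept.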
For “SAGGSADFQVEVERDPNNGYYEIEVRYPNGMPVEIEYNPKKNKIEVKVTPGFPPSMAENAAEELLDSAGGSA [r15_511_TrROS]”, the “folding stability dG unfold” value was -0.535 ± 0.49 kcal/mol.
In the case of “SAGGRVKVEIYNPDSGRPMEIEINPGNGTLEIRNPNNGEPVHEFPIPDIKEIEIPFSPNGILIKIEVDSAGG [r13_720_TrROS]”, the “folding stability dG unfold” value is reported as -0.137 ± 0.33 kcal/mol.
With “SAGGSSSTPRIKTSVSSSTTVTPLPGPTTLVTTTTTTTTTNPANGQQLSTTPTTSTTVVTPGTGAALSAGGS [r8_204_JUSTAS]” the “folding stability dG unfold” value was 0.314 ± 0.12 kcal/mol.
For “SAGGPEAKIEIYKLPDGYYFISVETPDNGKPMSIPIPPGEEKKIKIEPGAPIRDISIYPVKPGDPEAFSAGG [r13_122_TrROS]”, the “folding stability dG unfold” value was -0.158 ± 0.3 kcal/mol.
In the case of “SVITANDIKEMRKLGIEPIEHDPDNRYRFKFPRMNQPIEVEVKPVPPPPPIEIPDNMDSPEEADKWQDTFSA [r9_649_TrROS]”, the “folding stability dG unfold” value is reported as 0.259 ± 0.23 kcal/mol.
In the case of “SAGGSAGGSMTITVETTSKDPAVAEKELTEKVKKEYPPSVKVEIDPVSSPDGVARVRATIIRESAGGSAGGS [r20_122_JUSTAS]”, the “folding stability dG unfold” value is reported as 0.291 ± 0.19 kcal/mol.
With “SAGGSAGGSAGMYDVGFIEAPKDTAYIKFPEINYIAEIKLDPKNGGFSLDEIKLYPLNTKSAGGSAGGSAGG [r11_352_TrMRF]” the “folding stability dG unfold” value was 0.107 ± 0.11 kcal/mol.
For “SPKWKPIAEIPFKNGDPDEFIDKLKDAFPPDPPVQITFNGPDGPPMRIWIDPDEGRIDDIYPGGQIRIIPSA [r9_853_TrROS]”, the “folding stability dG unfold” value was less than -1 kcal/mol.
For “SAGGSAGGSAGELPEGAKVEVREETFTRPDGYLVKRTEVRLEDTDELVTSEEVIEPGEEPSAGGSAGGSAGG [r11_338_TrROS_Hall]”, the “folding stability dG unfold” value was 0.378 ± 0.06 kcal/mol.
With “SAGGSAGGSMTTLRTRLKGDGTVEIEVYEPGRIRTITLPPSEVDKIPDVEDLPRYELEGDAPESAGGSAGGS [r12_343_JUSTAS]” the “folding stability dG unfold” value was -0.514 ± 0.22 kcal/mol.
With “SAGGSAGGNNPPKTREIWIPPDDPDDLKDLKIDGPPGDTHHFRNPGGPYRITVTDGDPKVEPWGSAGGSAGG [r6_551_TrROS]” the “folding stability dG unfold” value was less than -1 kcal/mol.
For “SAGGSAGGSAGSPNYIPKEVTIKVEGEGKPVEVKIKLTTSPEGKPASEEEILKKAEELLKSAGGSAGGSAGG [r17_373_JUSTAS]”, the “folding stability dG unfold” value was 0.0156 ± 0.34 kcal/mol.
With “SAGGMIEKVEIREVDPETGEVTVTFHVPSEDLEKLGPIPFPGVKEVRFFPGEKTIEARMPLEDALKHSAGGS [r16_614_TrMRF]” the “folding stability dG unfold” value was -0.0448 ± 0.19 kcal/mol.
With “MKITVTITSLGDKYTMTAEIELPDGTVETITKEFDSPEEAKKYIEKLVKELPPGLVEIEEIKFNPPDGTADS [r1_169_JUSTAS]” the “folding stability dG unfold” value was greater than 6 kcal/mol.
With “SAGGSAGGSGYPGLPMPVLRVRFAGDPEPVFIPVPADRPDVARAAAEELRALRPDVPVELELGSAGGSAGGS [r12_601_TrMRF]” the “folding stability dG unfold” value was 0.107 ± 0.057 kcal/mol.
For “SAGGSAGGSAGGMLSPEVGLPEVPVTLTDPTNDKVYTITVPPDTNPAEVAAALGVALLLSAGGSAGGSAGGS [r10_202_JUSTAS]”, the “folding stability dG unfold” value was -0.237 ± 0.38 kcal/mol.
In the case of “SAGGSAGGSAGGMTITKSPEPDLVTVTLPDASGTTVATLTFSPEVVESDPALVAAAAAATSAGGSAGGSAGG [r17_496_JUSTAS]”, the “folding stability dG unfold” value is reported as -0.335 ± 0.39 kcal/mol.
With “MTEKEIKEKAEEIAKKIAEEKGTEIKSAKIGGYVNVPVKVKEKLDENGKPVFEFEGKKVKVKVEVELKKKKS [r1_91_TrMRF]” the “folding stability dG unfold” value was less than -1 kcal/mol.
For “SAGGSAGGSAIKIETQGTPEEAREFAKDFANKNPELLENMKIDVITWRPPEPKYTPNGKPKSAGGSAGGSAG [r3_89_TrROS]”, the “folding stability dG unfold” value was -0.759 ± 0.24 kcal/mol.
With “SAGGSAGGLTITLPNGATVTINEDDLEVVEVTFEPAPPAPPVRTETRTVTETRTVTTLAPGEEASAGGSAGG [r6_585_TrROS_Hall]” the “folding stability dG unfold” value was 0.403 ± 0.11 kcal/mol.
For “SAGGSAGGSSTLSVELPDFTGSAADVLAALRAAFPDPALVLDGVEVRPLGADRPGWRVELAVASAGGSAGGS [r12_348_JUSTAS]”, the “folding stability dG unfold” value was 0.499 ± 0.078 kcal/mol.
With “SAGGIKELQEALREGNLPEIIKELKKRGYENVKIQPNPDEGTIEIEIERKDPEDGKPEEEELTIPLEPSAGG [r13_359_TrROS]” the “folding stability dG unfold” value was -0.271 ± 0.21 kcal/mol.
With “SAGGSAGGSAGSTTTRTVELPPGTSLEEVRARLEAEGYTGVVITEVERPPGPRLRVTVVGSAGGSAGGSAGG [r11_800_JUSTAS]” the “folding stability dG unfold” value was -0.0782 ± 0.22 kcal/mol.
In the case of “SAGPPEPREIEIPVEGSWSDLRNQVKNVAEEAQPKGEPVQIKIEWGGRPRKYTLNDIDDVPPWMKVEIYSAG [r5_626_TrROS]”, the “folding stability dG unfold” value is reported as -0.449 ± 0.74 kcal/mol.
For “SAGGSAGGSAGGGPEVEVETETLPTADGRPVRLVRARVPTREYLFLVSPDGEILRRIPVSAGGSAGGSAGGS [r10_97_TrMRF]”, the “folding stability dG unfold” value was -0.331 ± 0.22 kcal/mol.
With “SAGGSAGGSTITGRFESPEGINELANEFPGVEIFEDPENNWIYVEIEIKPPPPPPPEDQKNNKSAGGSAGGS [r20_191_TrROS]” the “folding stability dG unfold” value was 0.35 ± 0.3 kcal/mol.
In the case of “SAGGSAGGSAGGSSRVLKGKDTTVVLYPDSVTFYPGSTGTPVVKSISDPEVVEEIKKLLSAGGSAGGSAGGS [r4_353_JUSTAS]”, the “folding stability dG unfold” value is reported as less than -1 kcal/mol.
With “SAGGSAGGSAGKEPILAIPNPEFPDVVIIKTKDGVRAVPVEELKELDIDAVMSLEEALASSAGGSAGGSAGG [r17_88_TrMRF]” the “folding stability dG unfold” value was 0.174 ± 0.2 kcal/mol.
With “SAGGRIKIDIDPHPNEPGQPVMIKIKHPNGEREIPIPPNQSPEELKEAADDLAEENGFPIDDVEIHPSAGGS [r16_753_TrROS]” the “folding stability dG unfold” value was 0.154 ± 0.16 kcal/mol.
With “SAGGSAGGSAGGSMSTLSLTIPVGGEPVSVTVQQLYDPTKNTTTTLLPPEAAAVIARAAGSAGGSAGGSAGG [r11_91_JUSTAS]” the “folding stability dG unfold” value was less than -1 kcal/mol.
For “SAGGSAGGSAGGGMDEEETVELDLTTKGTDPAEVEAARAARAEELGLPLADVRVRVSAESAGGSAGGSAGGS [r10_401_JUSTAS]”, the “folding stability dG unfold” value was less than -1 kcal/mol.
For “SAGGSAGGSAGEWIPADYIRDFARNLGMPGKIDVERKEDGWFTIEIRNNGGPRKIQIPLDSAGGSAGGSAGG [r11_410_TrROS]”, the “folding stability dG unfold” value was -0.548 ± 0.38 kcal/mol.
With “SAGMIVVPLPLSVEEAPAFARELLEAAEAAGLEVTIRVPDEAVAEAVREAAPPDAPVRIEPLEPGEPVESAG [r5_911_JUSTAS]” the “folding stability dG unfold” value was 0.128 ± 0.11 kcal/mol.
For “SAGGSAGGSAGMRITVEPDRVVVHPPGGEEIVMPAPEWGEEEVLALAEEHPDVEVEPVPPSAGGSAGGSAGG [r17_545_JUSTAS]”, the “folding stability dG unfold” value was less than -1 kcal/mol.
With “SAGVEVTSTSVDYTLDSSSPSPLRSSASPVRSAPPVEERPVELVDPSGERRLVTLKEIDPEKGGRVLSGSAG [r5_735_JUSTAS]” the “folding stability dG unfold” value was 0.185 ± 0.24 kcal/mol.
With “SAGGSAGGSAGMIQIDQDPNNGNYKVKIRNPDGKPREFNVDSPDELEDAADKNGFPAEPISAGGSAGGSAGG [r11_1049_TrROS]” the “folding stability dG unfold” value was -0.512 ± 0.41 kcal/mol.
In the case of “SAGGSAGGSAGGTVVPEKEARELARKVAEKGEPIEVEIGDPGPKKPRTVLITPEDLEERSAGGSAGGSAGGS [r10_779_JUSTAS]”, the “folding stability dG unfold” value is reported as less than -1 kcal/mol.
With “SAGGSAGGSMKLGGKPIKRVESEPLPGPSRLFYIELEDKKIPVVLEGDKLLVSPELFEWEKEGSAGGSAGGS [r20_92_TrMRF]” the “folding stability dG unfold” value was -0.0157 ± 0.2 kcal/mol.
With “SAGGMKKIKVPDGSEIGSVNPKGGIDYVKVKLPGSGVLVEKAVPKGGKLVIPKNIPVELVEIKDYPLSAGGS [r16_123_TrMRF]” the “folding stability dG unfold” value was -0.366 ± 0.2 kcal/mol.
With “SAGGSAGGSAGGMSAEEVREIVEELGFDDPTEVVVLDLPDGRRVLVTNPPDGLRLEVLDSAGGSAGGSAGGS [r10_604_TrMRF]” the “folding stability dG unfold” value was 0.562 ± 0.12 kcal/mol.
In the case of “SAGGSAGGSAGGSMKKVEVEIPYSFEGPPTFNPEEIEKKLKEEGINAKIKTKYIPKSKEKSAGGSAGGSAGG [r7_355_JUSTAS]”, the “folding stability dG unfold” value is reported as -0.321 ± 0.7 kcal/mol.
With “SAGGSAGGSAGGDPDGKPPPKIEFEMETVPIPNPDGQALEIEIFRIKGNGMLFIMIEPYSAGGSAGGSAGGS [r10_1137_TrROS]” the “folding stability dG unfold” value was 4.47 ± 0.84 kcal/mol.
In the case of “SAGTTTITVPASEASEEEVQALIDEIEAANPHLKVKEVKETVVPLPTPKPVRLRTIIINAELPLPPELLSAG [r5_835_JUSTAS]”, the “folding stability dG unfold” value is reported as -0.132 ± 0.47 kcal/mol.
In the case of “SAGGMESSVLSVSTITRSAPPGSPLASTTATVTVTKTDGRTIVTVPATGVVYTVNPDGTVTADPVDPPSAGG [r13_721_JUSTAS]”, the “folding stability dG unfold” value is reported as less than -1 kcal/mol.
In the case of “SAGGSAGEAEELAEAREAALRAALPPGTVVEVEVEVRVEREGDREEERVEVRVTVREPGTDRLLLESAGGSA [r15_915_JUSTAS]”, the “folding stability dG unfold” value is reported as -0.173 ± 0.57 kcal/mol.
For “SAGGIRLEIPPNWTPEEAKEQAEELANFFAKKGPMEVEDIEYKRDEKDGNPMIVGEIRDPKNGKEWTISAGG [r13_669_TrROS]”, the “folding stability dG unfold” value was -0.754 ± 0.68 kcal/mol.
For “SAGGSAGGSSGLTLLEETEISPGPPVPAIPATLPVKVDGKTVPLPITLTPEELAALRAELLRRSAGGSAGGS [r20_148_JUSTAS]”, the “folding stability dG unfold” value was 0.364 ± 0.093 kcal/mol.
